Where two headings read alike, the source gives them in different places.
How the values were obtained:
Yu2 gp120 [1] = experiment: SPR
Yu2 gp120 [2] = experiment: SPR; remark: listed apart in the source

B1: CVN (other)
chain: LGKFSQTCYNSAIQGSVLTSTCERTNGGYNTSSIDLNSVIENVDGSLKWQPSNFIETCRNTQLAGSSELAAECKTRAQQFVSTKINLDDHIANIDGTLKYE
Kd (Yu2 gp120 [1]): 0.622 nM
Kd (Yu2 gp120 [2]): 0.622 nM

Reference: patent US20230355708A1 (published 2023)
